Data on 4 molecules can be found in patent publication US20090053241A1 (Eli Lilly, published 2009).

In general, EC50 (read off the curve) refers to the concentration giving half of the maximal effect. As usually defined, the IC50 is the concentration needed to halve the response being measured. Usually Kd stands for a measure of binding affinity in units of concentration. A lower Kd goes with tighter binding. Broadly, the EC50 is the concentration at which the effect is half-maximal. Read a low EC50 as an effect from little substance.

Test [1] deals with T1, h5β (human, UniProt P09619 33-530, limits assumed).
T1 construct: domain: domains 1-5 (read from the label); read as human PDGFRβ with all five domains
T1 sequence (P09619 33-530 limits assumed): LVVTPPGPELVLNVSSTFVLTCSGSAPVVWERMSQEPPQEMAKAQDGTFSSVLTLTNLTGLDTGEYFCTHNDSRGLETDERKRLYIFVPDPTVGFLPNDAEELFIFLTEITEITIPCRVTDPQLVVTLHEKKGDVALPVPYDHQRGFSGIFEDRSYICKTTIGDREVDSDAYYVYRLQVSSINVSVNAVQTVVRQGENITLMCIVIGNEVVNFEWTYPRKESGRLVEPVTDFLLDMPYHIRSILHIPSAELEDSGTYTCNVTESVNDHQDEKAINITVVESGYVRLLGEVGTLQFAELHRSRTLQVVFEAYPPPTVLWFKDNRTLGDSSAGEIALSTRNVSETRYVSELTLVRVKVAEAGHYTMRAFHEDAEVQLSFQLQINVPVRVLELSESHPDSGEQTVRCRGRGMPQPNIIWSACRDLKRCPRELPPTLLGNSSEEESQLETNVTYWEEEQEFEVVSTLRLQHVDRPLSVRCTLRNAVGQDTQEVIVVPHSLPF
Put plainly: ELISA (OD450), panel '2C5 BINDING TO PDGFRβ/α CHIMERAS'; axis 'CO…ON (nM)', titrated species not stated. In general terms: In an ELISA, binding on a coated surface is turned into a signal by an enzyme label.

Test [2] has as its target T2, β1-2 (shorter version of PDGFRβ, D1D2).
T2 construct: domain: D1D2
Put plainly: ELISA (OD450), panel '2C5 BINDING TO hPDGFRβ DELETIONS'; axis 'CO…ON (nM)', titrated species not stated.

Test [3] concerns the target T1, h5β. The description is as above.
The target of test [4] is T3, β1-3 (shorter version of PDGFRβ, D1D2D3).
T3 construct: domain: D1D2D3
The test is described as above.

Test [5] deals with T4, mPDGFRβ/Fc (mouse, UniProt P05622 32-530, limits assumed).
T4 construct: The methods say 'mPDGFRβ' for ELISA plates and the BIAcore chip; also called murine PDGFRβ; mouse PDGFRβ; not shown: Fc part; detected with a goat anti-human Fc antibody
T4 sequence (looked up): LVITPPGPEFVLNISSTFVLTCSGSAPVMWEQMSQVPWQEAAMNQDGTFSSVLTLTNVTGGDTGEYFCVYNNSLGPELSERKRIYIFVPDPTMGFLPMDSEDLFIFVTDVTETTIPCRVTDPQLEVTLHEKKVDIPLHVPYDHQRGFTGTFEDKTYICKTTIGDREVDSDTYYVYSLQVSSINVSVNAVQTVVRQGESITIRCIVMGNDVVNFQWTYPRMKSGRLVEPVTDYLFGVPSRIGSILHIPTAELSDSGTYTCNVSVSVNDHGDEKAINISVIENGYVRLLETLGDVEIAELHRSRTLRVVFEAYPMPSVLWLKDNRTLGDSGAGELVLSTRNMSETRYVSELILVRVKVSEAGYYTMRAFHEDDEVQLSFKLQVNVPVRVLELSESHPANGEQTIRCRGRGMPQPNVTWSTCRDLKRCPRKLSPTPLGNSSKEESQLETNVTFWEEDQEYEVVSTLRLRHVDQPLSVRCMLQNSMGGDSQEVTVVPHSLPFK
Put plainly: ELISA, panel 'BINDING TO mPDGFRβ'.

The target in test [6] is T5, human PDGFRβ (soluble recombinant protein) (human, UniProt P09619 33-530, limits assumed).
T5 construct: the construct is not described; also called hPDGFRβ
T5 sequence (P09619 33-530 limits assumed): as the sequence (P09619 33-530 limits assumed) above
Put plainly: ELISA, panel 'BINDING TO hPDGFRβ'.

Test [7] has as its target T5, human PDGFRβ (soluble recombinant …). Put plainly: blocking of PDGF-BB binding to hPDGFRβ (FIG. 6).
The target in test [8] is T4, mPDGFRβ/Fc. Put plainly: blocking of PDGF-BB binding to mPDGFRβ (FIG. 6).
For test [9], the target named is mouse PDGFRβ on cells (NIH/3T3, D122, 4T1, B16) (mouse, UniProt P05622 32-1098). Put plainly: cell-based or functional assay.
The target of test [10] is human PDGFRβ, cell-surface-expressed receptor on human tumor cell lines (human, UniProt P09619 33-1106). Description: cell-based or functional assay.
Chain of human PDGFRβ, cell-surface-expressed receptor on human tumor cell lines (P09619 33-1106): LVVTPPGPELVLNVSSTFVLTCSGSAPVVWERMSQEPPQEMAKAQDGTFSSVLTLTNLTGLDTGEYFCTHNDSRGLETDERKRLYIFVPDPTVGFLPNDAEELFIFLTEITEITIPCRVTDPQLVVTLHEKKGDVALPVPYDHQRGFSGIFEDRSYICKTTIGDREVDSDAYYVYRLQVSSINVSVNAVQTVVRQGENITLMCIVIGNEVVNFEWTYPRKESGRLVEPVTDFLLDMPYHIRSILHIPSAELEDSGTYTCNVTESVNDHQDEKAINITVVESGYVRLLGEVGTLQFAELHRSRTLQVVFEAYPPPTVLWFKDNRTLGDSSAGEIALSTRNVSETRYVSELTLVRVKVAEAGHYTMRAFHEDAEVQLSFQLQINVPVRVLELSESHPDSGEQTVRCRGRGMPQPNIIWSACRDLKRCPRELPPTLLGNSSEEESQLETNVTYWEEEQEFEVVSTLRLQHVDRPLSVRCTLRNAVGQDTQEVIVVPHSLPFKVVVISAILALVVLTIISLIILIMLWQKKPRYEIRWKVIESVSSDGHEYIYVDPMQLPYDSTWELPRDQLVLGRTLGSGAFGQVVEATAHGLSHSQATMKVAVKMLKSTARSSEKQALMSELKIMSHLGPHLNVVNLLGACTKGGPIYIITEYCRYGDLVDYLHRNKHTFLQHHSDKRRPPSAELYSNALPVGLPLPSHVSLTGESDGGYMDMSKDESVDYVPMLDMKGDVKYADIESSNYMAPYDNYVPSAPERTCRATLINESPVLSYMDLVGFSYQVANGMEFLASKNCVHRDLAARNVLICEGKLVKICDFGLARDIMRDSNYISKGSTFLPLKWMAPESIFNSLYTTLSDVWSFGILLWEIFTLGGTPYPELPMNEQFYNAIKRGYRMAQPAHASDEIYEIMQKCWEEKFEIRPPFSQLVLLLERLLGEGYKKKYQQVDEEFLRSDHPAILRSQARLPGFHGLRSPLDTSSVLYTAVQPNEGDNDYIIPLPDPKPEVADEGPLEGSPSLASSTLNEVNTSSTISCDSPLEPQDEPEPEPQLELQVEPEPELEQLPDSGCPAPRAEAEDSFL
Test [11] addresses T4, mPDGFRβ/Fc. Description: ELISA on mPDGFRβ/Fc-coated plate (1 µg/ml), detection with goat anti-human-κ antibody-HRP. On the procedure:
(§1) Plate-bound antibodies were detected with a goat anti-human-κ antibody-HRP. […] IMC-1121 is an antibody directed against human VEGFR2. Data represent the mean±SD of triplicate samples.
(§2) Quantitative receptor binding and blocking assays. […] The plates were then incubated at RT for an additional 1 h with a goat anti-human-κ antibody-horse radish peroxidase (HRP) conjugate (Jackson ImmunoResearch, West Grove, Pa.). The plates were washed and developed as previously described (Lu, D. et al., 2002; Zhu, Z. et al., 1998). […] After washing 3 times with PBST, the plates were incubated with a goat anti-human Fc antibody-HRP conjugate (Jackson ImmunoResearch) for 1 h, and developed as described (Lu, D. et al., 2002; Zhu, Z. et al., 1998; Loizos, N. et al., 2005).

Test [12] deals with T4, mPDGFRβ/Fc. Description: blocking ELISA: antibody mixed with mPDGFRβ/Fc, PDGF-BB-coated plates (FIG. 1B). On the procedure: as §1, §2
The target of test [13] is T4, mPDGFRβ/Fc. Put plainly: SPR (BIAcore), mPDGFRβ immobilized. On the procedure:
Antibody affinity determination. […] Sensorgrams were obtained at each concentration and were evaluated using the program, BIA Evaluation 2.0. The affinity constant, Kd, was calculated from the ratio of dissociation rate (koff)/association rate (kₒₙ) (Lu, D. et al., 2002; Zhu, Z. et al., 1998; Loizos, N. et al., 2005).
In general terms: In SPR one partner is held on a chip, and binding of the other changes the refractive index at the surface.

In test [14] the target is T4, mPDGFRβ/Fc. Put plainly: blocking ELISA, panel 'BLOCKING PDGF-BB BINDING TO mPDGFRβ'; blocked ligand PDGF-BB.
The target of test [15] is T4, mPDGFRβ/Fc. Put plainly: direct binding ELISA on mPDGFRβ/Fc-coated plates (printed as IC50; FIG. 1A). How it is done: as §1, §2
The target of test [16] is T4, mPDGFRβ/Fc. Description: blocking ELISA: Fab mixed with mPDGFRβ/Fc, PDGF-BB-coated plates (FIG. 1B). How it is done: as §1, §2

B1: 2C5 (human anti-PDGFRβ antibody) (antibody, V domains shown)
VH: QVQLVQSGAEVKKPGSSVKVSCKASGGTFSSYAISWVRQAPGQGLEWMGRIIPILGIANYAQKFQGRVTITADKSTSTAYMELSSLRSEDTAVYYCARDMGSRNYYYFYWGQGTLVTVSS
VL: EIVLTQSPATLSLSPGERATLSCRASQSVGRYLAWYQQKPGQAPRLLIYGASNRATGIPARFSGSGSGTDFTLTISSLEPEDFAVYYCQQRSNWPLTFGGGTKVEIKR
notes: also called 2C5 antibody; anti-PDGFRβ antibody 2C5
Take B1: the “EC50 (read off the curve)” value is roughly 0.05 nM with h5β [1]; roughly 0.1 nM in test [2]; roughly 0.06 nM in the test with h5β [3]; roughly 0.07 nM in test [4]; roughly 100 pM with mPDGFRβ/Fc [5]; roughly 100 pM in test [6]. Moreover, the IC50 in [7] worked out at 0.55 nM; with mPDGFRβ/Fc [8] it was 0.35 nM. Besides, the “PDGFRβ phosphorylation in mouse NIH/3T3 and D122 cell lines, IC50” value in test [9] is less than 1.8 µg/mL. For the same molecule, the “PDGFRβ phosphorylation in human Caki-1 tumor cells, IC50” value in test [10] was less than 1.8 µg/mL.

B2: 1121 IgG (antibody, V domains shown)
VH: EVQLVQSGGGLVKPGGSLRLSCAASGFTFSSYSMNWVRQAPGKGLEWVSSISSSSSYIYYADSVKGRFTISRDNAKNSLYLQMNSLRAEDTAVYYCARVTDAFDIWGQGTMVTVSS
VL: DIQMTQSPSSVSASIGDRVTITCRASQGIDNWLGWYQQKPGKAPKLLIYDASNLDTGVPSRFSGSGSGTYFTLTISSLQAEDFAVYFCQQAKAFPPTFGGGTKVDIK
notes: The sheet prints '1121 IgG'; also called IMC-1121; antibody directed against human VEGFR2
Take B2: the binding result with mPDGFRβ/Fc [11] was “no binding (tested: 10 nM)”.

B3: 1B3 IgG (full-length human anti-mouse PDGFRβ antibody) (antibody, V domains shown)
VH: QVQLQESGGGLVKPGGSLRLSCAASGFTFSSYSMNWVRQAPGKGLEWVSSISSSSSYIYYADSVKGRFTISRDNSKNTLYLQMNSLRAEDTAVYYCAKGGRPLLVFDFWGQGTLVTVS
VL: EIVMTQSPGTLSLSPGERATLSCRASQSVSSSYLAWYQQKPGQAPRLLIYDASKRATGIPARFSGSGSGTDFTLTISTLESEDSAVYYCQQRGYWPPITFGQGTRLEIKR
notes: also called 1B3 antibody; anti-mPDGFRβ antibody 1B3
The molecule B3 gave an IC50 in the test with mPDGFRβ/Fc [12] of 1.2 nM. In addition, in the test with mPDGFRβ/Fc [13], the equilibrium dissociation constant (Kd) amounted to 0.09 nM and the “fold increase in affinity over its Fab form” value is roughly 57 times. In the test with mPDGFRβ/Fc [14], this molecule yielded an IC50 of 0.37 nM. The “EC50 (read off the curve)” value with mPDGFRβ/Fc [5] was roughly 70 pM. Moreover, the binding result in test [6] is listed as “no binding (tested: about 1e-8 M)”. In the test with mPDGFRβ/Fc [15], this molecule registered an EC50 of 0.34 nM.

B4: 1B3 Fab (Fab, V domains shown)
VH: B3 VH
VL: B3 VL
notes: also called 1B3 Fab fragment; clone 1B3
The molecule B4 came in with an IC50 with mPDGFRβ/Fc [16] of 4.1 nM. In the test with mPDGFRβ/Fc [13], the Kd worked out at 5.1 nM. Further, a half-maximal response with mPDGFRβ/Fc [15] (EC50) required 1.3 nM.
